Article PMC10786891, “Massively parallel profiling of RNA-targeting CRISPR-Cas13d”

T1: EsCas13d, nuclease-dead (Eubacterium siraeum, UniProt B0MS50, R295A;H300A;R849A;H854A)
T1 sequence: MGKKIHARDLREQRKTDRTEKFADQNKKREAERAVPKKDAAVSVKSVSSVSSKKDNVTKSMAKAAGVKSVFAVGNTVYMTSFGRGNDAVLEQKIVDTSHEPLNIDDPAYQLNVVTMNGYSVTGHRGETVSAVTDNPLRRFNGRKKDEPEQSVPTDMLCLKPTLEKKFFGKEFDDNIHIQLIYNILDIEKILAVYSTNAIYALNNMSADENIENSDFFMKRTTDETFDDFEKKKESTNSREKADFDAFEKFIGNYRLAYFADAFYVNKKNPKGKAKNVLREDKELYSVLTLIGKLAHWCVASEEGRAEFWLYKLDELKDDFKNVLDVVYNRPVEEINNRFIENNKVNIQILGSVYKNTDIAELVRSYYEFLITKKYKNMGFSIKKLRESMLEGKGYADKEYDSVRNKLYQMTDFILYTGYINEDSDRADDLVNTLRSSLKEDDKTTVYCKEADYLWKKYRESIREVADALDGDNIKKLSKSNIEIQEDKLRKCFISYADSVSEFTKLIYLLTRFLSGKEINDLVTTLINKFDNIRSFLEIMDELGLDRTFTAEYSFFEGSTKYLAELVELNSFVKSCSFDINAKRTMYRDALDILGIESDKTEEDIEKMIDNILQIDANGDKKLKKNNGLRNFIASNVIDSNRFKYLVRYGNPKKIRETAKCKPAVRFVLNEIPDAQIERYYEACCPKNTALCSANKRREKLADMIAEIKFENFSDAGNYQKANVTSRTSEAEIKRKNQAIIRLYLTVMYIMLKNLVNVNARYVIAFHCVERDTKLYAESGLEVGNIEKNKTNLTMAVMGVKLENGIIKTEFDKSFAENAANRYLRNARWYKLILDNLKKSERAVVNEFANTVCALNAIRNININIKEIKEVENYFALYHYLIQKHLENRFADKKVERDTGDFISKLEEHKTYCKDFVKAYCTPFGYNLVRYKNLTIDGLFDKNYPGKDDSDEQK


Target: T1, EsCas13d, nuclease-dead
Test: crRNA (strand 1, pre-loaded); Mg2+; 40 mM Tris-HCl pH 7.5, 150 mM NaCl, 6 mM MgCl2, 1 mM DTT, 0.1% Tween-20, 0.2 mg/ml BSA; 25 C; 10 min per concentration, then washed
Conditions: tags: His6-TwinStrep-SUMO cleaved; N-terminal SNAP kept (SNAP-Surface 488); label: 3' end held by stalled T7 RNA polymerase

| Binder | Kd |
| --- | --- |
| target 1 C7U,U19C (mixed) RNA 1: CACCCGUGCAAAAAUGCAGGGGUCUAAAACUGAGCGGAUAACCUCUCUAUGG RNA 2: GGGAAUGGAUCCACAUCUACGAAUUCGUACCACAGAGAGGUUAUUCGCUCACCGAGAUCGGAAGAGCACACGU | 23.5 ± 1.7 nM |
| target 1 insU 3' of 20,insA 3' of 2 (mixed) RNA 1: CACCCGUGCAAAAAUGCAGGGGUCUAAAACUGAGCGGAUAACCUCUCUAUGG RNA 2: GGGAAUGGAUCCACAUCUACGAAUUCGUACCAUUAGAGAGGUUAUCCGCUCAACCGAGAUCGGAAGAGCACACGU | 12 ± 0.7 nM |
| target 3 G4A,A5C (mixed) RNA 1: CACCCGUGCAAAAUUGCAGGGGUCUAAAACGACCUGAAUAUUUCAGAUCAAA RNA 2: GGGAAUGGAUCCACAUCUACGAAUUCGUUUUUGAUCUGAAAUAUUCCAGUCUGCAGAUCGGAAGAGCACACGU | 99 ± 21 nM |
| target 3 insG 3' of 6,insA 3' of 2 (mixed) RNA 1: CACCCGUGCAAAAUUGCAGGGGUCUAAAACGACCUGAAUAUUUCAGAUCAAA RNA 2: GGGAAUGGAUCCACAUCUACGAAUUCGUUUUUGAUCUGAAAUAUUCGAGGUACUGCAGAUCGGAAGAGCACACGU | 15.6 ± 1.85 nM |
| target 3 A12C,U22C (mixed) RNA 1: CACCCGUGCAAAAUUGCAGGGGUCUAAAACGACCUGAAUAUUUCAGAUCAAA RNA 2: GGGAAUGGAUCCACAUCUACGAAUUCGUUCUUGAUCUGACAUAUUCAGGUCUGCAGAUCGGAAGAGCACACGU | 53 ± 20 nM |
| target 3 G4A,U22C (mixed) RNA 1: CACCCGUGCAAAAUUGCAGGGGUCUAAAACGACCUGAAUAUUUCAGAUCAAA RNA 2: GGGAAUGGAUCCACAUCUACGAAUUCGUUCUUGAUCUGAAAUAUUCAAGUCUGCAGAUCGGAAGAGCACACGU | 7.05 ± 1 nM |
| target 3 insU 3' of 22,insU 3' of 4 (mixed) RNA 1: CACCCGUGCAAAAUUGCAGGGGUCUAAAACGACCUGAAUAUUUCAGAUCAAA RNA 2: GGGAAUGGAUCCACAUCUACGAAUUCGUUUUUUGAUCUGAAAUAUUCAGUGUCUGCAGAUCGGAAGAGCACACGU | 4.9 ± 0.95 nM |
| target 3 insU 3' of 6,insG 3' of 5 (mixed) RNA 1: CACCCGUGCAAAAUUGCAGGGGUCUAAAACGACCUGAAUAUUUCAGAUCAAA RNA 2: GGGAAUGGAUCCACAUCUACGAAUUCGUUUUUGAUCUGAAAUAUUCUAGGGUCUGCAGAUCGGAAGAGCACACGU | 10.9 ± 0.9 nM |
| target 3 del21,del22 (mixed) RNA 1: CACCCGUGCAAAAUUGCAGGGGUCUAAAACGACCUGAAUAUUUCAGAUCAAA RNA 2: GGGAAUGGAUCCACAUCUACGAAUUCGUUUGAUCUGAAAUAUUCAGGUCUGCAGAUCGGAAGAGCACACGU | 13.4 ± 1.7 nM |
| target 3 insG 3' of 6,insU 3' of 3 (mixed) RNA 1: CACCCGUGCAAAAUUGCAGGGGUCUAAAACGACCUGAAUAUUUCAGAUCAAA RNA 2: GGGAAUGGAUCCACAUCUACGAAUUCGUUUUUGAUCUGAAAUAUUCGAGGUUCUGCAGAUCGGAAGAGCACACGU | 6.95 ± 0.6 nM |
| target 3 insC 3' of 5,insC 3' of 3 (mixed) RNA 1: CACCCGUGCAAAAUUGCAGGGGUCUAAAACGACCUGAAUAUUUCAGAUCAAA RNA 2: GGGAAUGGAUCCACAUCUACGAAUUCGUUUUUGAUCUGAAAUAUUCACGGCUCUGCAGAUCGGAAGAGCACACGU | 19.6 ± 1.9 nM |
| target 3 insU 3' of 6,insU 3' of 4 (mixed) RNA 1: CACCCGUGCAAAAUUGCAGGGGUCUAAAACGACCUGAAUAUUUCAGAUCAAA RNA 2: GGGAAUGGAUCCACAUCUACGAAUUCGUUUUUGAUCUGAAAUAUUCUAGUGUCUGCAGAUCGGAAGAGCACACGU | 6.95 ± 0.7 nM |
| target 3 U8G,U22A (mixed) RNA 1: CACCCGUGCAAAAUUGCAGGGGUCUAAAACGACCUGAAUAUUUCAGAUCAAA RNA 2: GGGAAUGGAUCCACAUCUACGAAUUCGUUAUUGAUCUGAAAUAGUCAGGUCUGCAGAUCGGAAGAGCACACGU | 72.5 ± 13.5 nM |
| target 3 U2G,C6A (mixed) RNA 1: CACCCGUGCAAAAUUGCAGGGGUCUAAAACGACCUGAAUAUUUCAGAUCAAA RNA 2: GGGAAUGGAUCCACAUCUACGAAUUCGUUUUUGAUCUGAAAUAUUAAGGGCUGCAGAUCGGAAGAGCACACGU | 11.3 ± 1.4 nM |
| target 3 G4A,C6G (mixed) RNA 1: CACCCGUGCAAAAUUGCAGGGGUCUAAAACGACCUGAAUAUUUCAGAUCAAA RNA 2: GGGAAUGGAUCCACAUCUACGAAUUCGUUUUUGAUCUGAAAUAUUGAAGUCUGCAGAUCGGAAGAGCACACGU | 42 ± 4.5 nM |
| target 3 insC 3' of 8,insC 3' of 3 (mixed) RNA 1: CACCCGUGCAAAAUUGCAGGGGUCUAAAACGACCUGAAUAUUUCAGAUCAAA RNA 2: GGGAAUGGAUCCACAUCUACGAAUUCGUUUUUGAUCUGAAAUAUCUCAGGCUCUGCAGAUCGGAAGAGCACACGU | 77 ± 23 nM |
| target 3 U2A,G4C (mixed) RNA 1: CACCCGUGCAAAAUUGCAGGGGUCUAAAACGACCUGAAUAUUUCAGAUCAAA RNA 2: GGGAAUGGAUCCACAUCUACGAAUUCGUUUUUGAUCUGAAAUAUUCACGACUGCAGAUCGGAAGAGCACACGU | 5.05 ± 0.55 nM |
| target 3 U7A,U22C (mixed) RNA 1: CACCCGUGCAAAAUUGCAGGGGUCUAAAACGACCUGAAUAUUUCAGAUCAAA RNA 2: GGGAAUGGAUCCACAUCUACGAAUUCGUUCUUGAUCUGAAAUAUACAGGUCUGCAGAUCGGAAGAGCACACGU | 41 ± 6.5 nM |
| target 3 C16U,U22C (mixed) RNA 1: CACCCGUGCAAAAUUGCAGGGGUCUAAAACGACCUGAAUAUUUCAGAUCAAA RNA 2: GGGAAUGGAUCCACAUCUACGAAUUCGUUCUUGAUUUGAAAUAUUCAGGUCUGCAGAUCGGAAGAGCACACGU | 81.5 ± 30 nM |
| target 3 C1G,U22C (mixed) RNA 1: CACCCGUGCAAAAUUGCAGGGGUCUAAAACGACCUGAAUAUUUCAGAUCAAA RNA 2: GGGAAUGGAUCCACAUCUACGAAUUCGUUCUUGAUCUGAAAUAUUCAGGUGUGCAGAUCGGAAGAGCACACGU | 41 ± 8 nM |
| target 3 insG 3' of 7,insC 3' of 7 (mixed) RNA 1: CACCCGUGCAAAAUUGCAGGGGUCUAAAACGACCUGAAUAUUUCAGAUCAAA RNA 2: GGGAAUGGAUCCACAUCUACGAAUUCGUUUUUGAUCUGAAAUAUUGCCAGGUCUGCAGAUCGGAAGAGCACACGU | 44.5 ± 5 nM |
| target 3 C1A,A9G (mixed) RNA 1: CACCCGUGCAAAAUUGCAGGGGUCUAAAACGACCUGAAUAUUUCAGAUCAAA RNA 2: GGGAAUGGAUCCACAUCUACGAAUUCGUUUUUGAUCUGAAAUGUUCAGGUAUGCAGAUCGGAAGAGCACACGU | 61 ± 16.5 nM |
| target 3 U2G,U7A (mixed) RNA 1: CACCCGUGCAAAAUUGCAGGGGUCUAAAACGACCUGAAUAUUUCAGAUCAAA RNA 2: GGGAAUGGAUCCACAUCUACGAAUUCGUUUUUGAUCUGAAAUAUACAGGGCUGCAGAUCGGAAGAGCACACGU | 6.55 ± 0.85 nM |
| target 3 insG 3' of 9,insC 3' of 5 (mixed) RNA 1: CACCCGUGCAAAAUUGCAGGGGUCUAAAACGACCUGAAUAUUUCAGAUCAAA RNA 2: GGGAAUGGAUCCACAUCUACGAAUUCGUUUUUGAUCUGAAAUAGUUCACGGUCUGCAGAUCGGAAGAGCACACGU | 80.5 ± 12.5 nM |
| target 3 insG 3' of 2,insC 3' of 2 (mixed) RNA 1: CACCCGUGCAAAAUUGCAGGGGUCUAAAACGACCUGAAUAUUUCAGAUCAAA RNA 2: GGGAAUGGAUCCACAUCUACGAAUUCGUUUUUGAUCUGAAAUAUUCAGGUGCCUGCAGAUCGGAAGAGCACACGU | 68.5 ± 10.5 nM |
| target 3 U22C (mixed) RNA 1: CACCCGUGCAAAAUUGCAGGGGUCUAAAACGACCUGAAUAUUUCAGAUCAAA RNA 2: GGGAAUGGAUCCACAUCUACGAAUUCGUUCUUGAUCUGAAAUAUUCAGGUCUGCAGAUCGGAAGAGCACACGU | 13.8 ± 1.8 nM |
| target 3 insA 3' of 6,insC 3' of 4 (mixed) RNA 1: CACCCGUGCAAAAUUGCAGGGGUCUAAAACGACCUGAAUAUUUCAGAUCAAA RNA 2: GGGAAUGGAUCCACAUCUACGAAUUCGUUUUUGAUCUGAAAUAUUCAAGCGUCUGCAGAUCGGAAGAGCACACGU | 8.4 ± 0.95 nM |
| target 3 insU 3' of 22,insA 3' of 2 (mixed) RNA 1: CACCCGUGCAAAAUUGCAGGGGUCUAAAACGACCUGAAUAUUUCAGAUCAAA RNA 2: GGGAAUGGAUCCACAUCUACGAAUUCGUUUUUUGAUCUGAAAUAUUCAGGUACUGCAGAUCGGAAGAGCACACGU | 26.2 ± 2.5 nM |
